± gives the half width of the 95% confidence interval.
Experiments:
[1] = folding stability dG unfold from chymotrypsin proteolysis; higher = more stable
Summary of the method: (§1)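 K50 was inferred by Bayesian fitting of sequencing counts obtained after protease digestion of designed mini-proteins. Unfolding free energy was derived by comparison with a sequence-predicted unfolded-state K50 and a shared folded-state K50, for each protease or both combined. The mini-proteins were under 80 residues, had no cysteine, were carried in a PA-tagged cDNA display construct, and were kept only if AlphaFold2 dimer inter-PAE exceeded 15.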

[2] = folding stability dG unfold (combined trypsin and chymotrypsin); higher = more stable
Summary of the method: as §1

[3] = folding stability dG unfold from trypsin proteolysis; higher = more stable
Summary of the method: as §1

Question: Which “folding stability dG unfold” value [1] does the source give for “SAGGIEIPVNPHPSEDGQPYVMFTLEIEPKDDNGKKQERPIPFMFDSPDDAEEFASEAAPDGYKIRISAGGS [r16_652_TrROS]” here?
Answer: 0.196 ± 0.11 kcal/mol

Question: What about the “folding stability dG unfold” value [2] of the same sequence?
Answer: -0.0602 ± 0.15 kcal/mol

Question: What about the “folding stability dG unfold” value [3] of the same sequence?
Answer: -0.86 ± 0.48 kcal/mol

Question: For “SAGGIIPIENASWDELLNALKEAAEKGDPNVTITFQDPGRPYWIQIDPDENNIEVEHPNGETWRFKISAGGS [r16_481_TrROS]”, which “folding stability dG unfold” value [1] is on record?
Answer: 0.995 ± 0.14 kcal/mol

Question: And the “folding stability dG unfold” value [2]?
Answer: 0.905 ± 0.18 kcal/mol

Question: What about the “folding stability dG unfold” value [3] of the same sequence?
Answer: 0.749 ± 0.089 kcal/mol

Question: For “SAGGIKEVKFDPKTNTLTVYLPEVGATITYNPTAGKLEIYSKDGKPKTIDVPTPSEMKKAILKAYKELKSAG [r5_467_TrMRF]”, which “folding stability dG unfold” value [1] is on record?
Answer: 2.84 ± 0.069 kcal/mol

Question: What about the “folding stability dG unfold” value [2] of the same sequence?
Answer: 2.69 ± 0.21 kcal/mol

Question: What about the “folding stability dG unfold” value [3] of the same sequence?
Answer: 1.82 ± 0.064 kcal/mol

Question: Which “folding stability dG unfold” value [1] does the source give for “SAGGIKIERDPNMWKFEIPLPNKPLTIHISQSDGRYTIAIYENGKPIRTVPFPGPVDDAIERALKKLSAGGS [r8_276_TrROS]” here?
Answer: 2.05 ± 0.032 kcal/mol

Question: What about the “folding stability dG unfold” value [2] of the same sequence?
Answer: 1.93 ± 0.054 kcal/mol

Question: What about the “folding stability dG unfold” value [3] of the same sequence?
Answer: 1.66 ± 0.034 kcal/mol

Question: Which results are given for “SAGGIKIMIPPGMPEEEARELARMIASMLPDNGHNIDDVKVRPVKPMPPPDGEPHRMYEFEIKLEPPSAGGS [r16_266_TrROS]”?
Answer: folding stability dG unfold [1]: 0.35 ± 0.1 kcal/mol; folding stability dG unfold [2]: 0.738 ± 0.11 kcal/mol; folding stability dG unfold [3]: 1.01 ± 0.035 kcal/mol

Question: With “SAGGIKIQDPDDGEWIEFPLPIRNPGDGKPYPFKVEIPVRRDPENGRPYFYIEIEFPGNGRKMTFPLRSAGG [r13_262_TrROS]” as the sequence, how does the “folding stability dG unfold” value [1] read?
Answer: 1.12 ± 0.058 kcal/mol

Question: And the “folding stability dG unfold” value [2]?
Answer: 0.918 ± 0.057 kcal/mol

Question: And the “folding stability dG unfold” value [3]?
Answer: 0.518 ± 0.06 kcal/mol

Question: Which results are given for “SAGGIKPDEPAIVLVKIPLPPGPNPEGGLEGPVLKTFPLEVGFPSLEELIEAVKELFPEGTEVEIIPSAGGS [r16_282_TrMRF]”?
Answer: folding stability dG unfold [1]: -0.431 ± 0.13 kcal/mol; folding stability dG unfold [2]: 0.455 ± 0.1 kcal/mol; folding stability dG unfold [3]: 1.06 ± 0.042 kcal/mol

Question: With “SAGGIRIDDEGMIQIYFPGWRHTIPIKPNLEITEITIPDDGYIKITFRIPGKTVKHEFPMLPPGQEISAGGS [r16_635_TrROS]” as the sequence, how does the “folding stability dG unfold” value [1] read?
Answer: 1.32 ± 0.1 kcal/mol

Question: And the “folding stability dG unfold” value [2]?
Answer: 1.82 ± 0.27 kcal/mol

Question: What about the “folding stability dG unfold” value [3] of the same sequence?
Answer: 2.35 ± 0.082 kcal/mol

Question: With “SAGGIRIKPGQILVIDIERPTGNERKIIIPMDDPEEVIEQLGFPPENFRIKDIEVVPMPPEQAKDFLESAGG [r13_850_TrROS]” as the sequence, how does the “folding stability dG unfold” value [1] read?
Answer: 0.585 ± 0.1 kcal/mol

Question: And the “folding stability dG unfold” value [2]?
Answer: 0.321 ± 0.17 kcal/mol

Question: What about the “folding stability dG unfold” value [3] of the same sequence?
Answer: -0.0896 ± 0.28 kcal/mol

Question: With “SAGGITIRGMPWEWAEEIAKTLAQEGYRLKDVEVEEDPPDGYYSVTVQQRDPETGKPKKPVTISIPPSAGGS [r16_750_TrROS]” as the sequence, how does the “folding stability dG unfold” value [1] read?
Answer: 0.0769 ± 0.44 kcal/mol

Question: What about the “folding stability dG unfold” value [2] of the same sequence?
Answer: 0.515 ± 0.43 kcal/mol

Question: And the “folding stability dG unfold” value [3]?
Answer: 0.594 ± 0.13 kcal/mol

Question: Which “folding stability dG unfold” value [1] does the source give for “SAGGITIVWQPGYFRIEFPGNGNTVPIPIPPDDPGRTLEEFADEFIDEMSERFGIPPPEDIKIEYYDSAGGS [r8_402_TrROS]” here?
Answer: 1.36 ± 0.084 kcal/mol

Question: What about the “folding stability dG unfold” value [2] of the same sequence?
Answer: 1.39 ± 0.15 kcal/mol

Question: And the “folding stability dG unfold” value [3]?
Answer: 1.31 ± 0.13 kcal/mol

Question: For “SAGGIVEEAIKKLFESGIPLSEEEIKEIIEKAIKEENEKKGKKIEKIEIGEIKFNPETGYAPIKIKASAGGS [r16_365_TrMRF]”, which “folding stability dG unfold” value [1] is on record?
Answer: 1.44 ± 0.13 kcal/mol

Question: What about the “folding stability dG unfold” value [2] of the same sequence?
Answer: 0.856 ± 0.83 kcal/mol

Question: And the “folding stability dG unfold” value [3]?
Answer: -0.383 ± 0.48 kcal/mol

Question: What does the source list for “SAGGIVPLPNGHWVIMAQFEVDEGQTVDDAPEFAREIAKTFGIKPTQVQVDPEKGYVNVAIKIPPGALSAGG [r13_178_TrROS]”?
Answer: folding stability dG unfold [1]: 0.263 ± 0.35 kcal/mol; folding stability dG unfold [2]: 0.327 ± 0.25 kcal/mol; folding stability dG unfold [3]: 0.217 ± 0.11 kcal/mol

Question: Which “folding stability dG unfold” value [1] does the source give for “SAGGIVVGEEGVVRITGPGEPVIIPLPENSEVVEIDVPDDGYVRITLRVDGKTVTVDFPSAPPGLTLSAGGS [r16_635_TrMRF]” here?
Answer: 0.355 ± 0.041 kcal/mol

Question: And the “folding stability dG unfold” value [2]?
Answer: 0.927 ± 0.051 kcal/mol

Question: And the “folding stability dG unfold” value [3]?
Answer: 1.34 ± 0.038 kcal/mol

Question: For “SAGGIVVKVADGSYVRIVVYDPNNPVPRIETFPGGGVDDVIAAIAASPSFPNTVVYVERFDDGKPYPASAGG [r13_914_TrMRF]”, which “folding stability dG unfold” value [1] is on record?
Answer: 0.664 ± 0.055 kcal/mol

Question: And the “folding stability dG unfold” value [2]?
Answer: 0.747 ± 0.075 kcal/mol

Question: And the “folding stability dG unfold” value [3]?
Answer: 0.871 ± 0.043 kcal/mol

Question: Which “folding stability dG unfold” value [1] does the source give for “SAGGKEIEELAKKLAEELGVEVVKVEVEKVGPDTVKVTVTLKDGKKIKIEIKKKKDGSYEIKVEIEPSAGGS [r8_284_TrROS_Hall]” here?
Answer: 2.63 ± 0.22 kcal/mol

Question: And the “folding stability dG unfold” value [2]?
Answer: 2.97 ± 0.3 kcal/mol

Question: What about the “folding stability dG unfold” value [3] of the same sequence?
Answer: 3.08 ± 0.19 kcal/mol

Question: What does the source list for “SAGGKEIKIEVELDEDGNLTVTITLPDGRVVRITFTPGKITVEVFDAETGELVEEKTLTADELLELLSAGGS [r8_476_TrROS_Hall]”?
Answer: folding stability dG unfold [1]: 3.81 ± 0.13 kcal/mol; folding stability dG unfold [2]: 3.67 ± 0.13 kcal/mol; folding stability dG unfold [3]: 3.46 ± 0.16 kcal/mol

Question: Which “folding stability dG unfold” value [1] does the source give for “SAGGKEIYVVRIEVYYPSNGKVEEKEYVIEATPEEAEELAKKIAEAFKEEAGEEVEVLRVEIKVYDLSAGGS [r16_140_TrMRF]” here?
Answer: 4.68 ± 0.072 kcal/mol

Question: What about the “folding stability dG unfold” value [2] of the same sequence?
Answer: 4.65 ± 0.12 kcal/mol

Question: What about the “folding stability dG unfold” value [3] of the same sequence?
Answer: 3.82 ± 0.22 kcal/mol

Question: What does the source list for “SAGGKEVKITFKAPKEEAVPKVKKAAEEYGVTVKSIDYDPETGKVTVVVDDSVPEEKVKEAFEKVLKSAGGS [r8_338_TrMRF]”?
Answer: folding stability dG unfold [1]: 1.75 ± 0.082 kcal/mol; folding stability dG unfold [2]: 1.75 ± 0.21 kcal/mol; folding stability dG unfold [3]: 1.53 ± 0.078 kcal/mol

Question: Which “folding stability dG unfold” value [1] does the source give for “SAGGKEVVIVFPLPENFEAEIFIPDRPVVRLENGLLVAVAPENVPALIVIRNPNGEELVLPVELLDLSAGGS [r8_72_TrMRF]” here?
Answer: 1.28 ± 0.014 kcal/mol

Question: What about the “folding stability dG unfold” value [2] of the same sequence?
Answer: 1.32 ± 0.084 kcal/mol

Question: What about the “folding stability dG unfold” value [3] of the same sequence?
Answer: 1.27 ± 0.037 kcal/mol

Question: With “SAGGKEYYLVKIEIEVTPENGKKETIEIELIVDGNPEEALKKAKEIAEYLEKKGFKVEIKKIEVYPASAGGS [r16_525_TrMRF]” as the sequence, how does the “folding stability dG unfold” value [1] read?
Answer: 4.55 ± 0.073 kcal/mol

Question: And the “folding stability dG unfold” value [2]?
Answer: 4.54 ± 0.15 kcal/mol

Question: What about the “folding stability dG unfold” value [3] of the same sequence?
Answer: 3.9 ± 0.15 kcal/mol

Question: For “SAGGKIEEVARELAKELNAVSIDFRTEGDVPSVEIRFRIPGSPLWLRVTITRDPDGNISVSIEPDPRSAGGS [r16_433_TrMRF]”, which “folding stability dG unfold” value [1] is on record?
Answer: 4.16 ± 0.074 kcal/mol

Question: And the “folding stability dG unfold” value [2]?
Answer: 3.75 ± 0.09 kcal/mol

Question: And the “folding stability dG unfold” value [3]?
Answer: 2.94 ± 0.054 kcal/mol

Question: For “SAGGKIKIMDIEIERHGGYYKIEIWIQVDTPDDIEDLLKAGVPNVEVERRRNPNGRLYVQAEFYIPAGSAGG [r13_506_TrROS]”, which “folding stability dG unfold” value [1] is on record?
Answer: 3.49 ± 0.17 kcal/mol

Question: What about the “folding stability dG unfold” value [2] of the same sequence?
Answer: 3.14 ± 0.26 kcal/mol

Question: What about the “folding stability dG unfold” value [3] of the same sequence?
Answer: 1.74 ± 0.11 kcal/mol

Question: Which “folding stability dG unfold” value [1] does the source give for “SAGGKIKIRNPKTGLIVEVLEYNPETGKFKVKVTFPDGSVEEKEFPGSLEDLIEWLESEGFPFEVEGSAGGS [r16_748_TrMRF]” here?
Answer: 3.72 ± 0.13 kcal/mol

Question: And the “folding stability dG unfold” value [2]?
Answer: 3.37 ± 0.16 kcal/mol

Question: And the “folding stability dG unfold” value [3]?
Answer: 2.26 ± 0.13 kcal/mol

Question: With “SAGGKIKKGETVKIKIEIENKNGEKKTIELEVKKEDLEKLKELIEKLKEKGFKIKKIEIKVLKKEKKSAGGS [r8_497_TrROS_Hall]” as the sequence, how does the “folding stability dG unfold” value [1] read?
Answer: 2.96 ± 0.03 kcal/mol

Question: What about the “folding stability dG unfold” value [2] of the same sequence?
Answer: 2.51 ± 0.2 kcal/mol

Question: And the “folding stability dG unfold” value [3]?
Answer: 1.02 ± 0.13 kcal/mol

Question: Which “folding stability dG unfold” value [1] does the source give for “SAGGKIKVTVEKEENGTYRVTVEITLPDGKKITITVTVPPGVKTEEEAKKLAEEKVKELLKKLGIKPSAGGS [r8_464_TrROS_Hall]” here?
Answer: 4.27 ± 0.14 kcal/mol

Question: And the “folding stability dG unfold” value [2]?
Answer: 4.11 ± 0.16 kcal/mol

Question: What about the “folding stability dG unfold” value [3] of the same sequence?
Answer: 3.72 ± 0.15 kcal/mol

Question: What does the source list for “SAGGKILIYPGSIEEAIEALKANPNTTVLVISPDGTLIEITVEELGPGPFKIDIKVIPLLPPLKPDEASAGG [r13_56_TrMRF]”?
Answer: folding stability dG unfold [1]: 2.212 ± 0.021 kcal/mol; folding stability dG unfold [2]: 1.97 ± 0.069 kcal/mol; folding stability dG unfold [3]: 1.6 ± 0.043 kcal/mol

— the supplement of paper PMC12764529
